Measurements from the supplement of paper PMC9233669.
Variants at the floor of the assay were thinned out.

Assays:
biotinyl-Phe-oxazolone = experiment: self-aminoacylation, catalytic enhancement (BFO) (fold over background); higher = more active; k-Seq, kA / k0A0; sequences stand for … in GGGAAUGGAUCCACAUCUACGAAUUC…UUCACUGCAGACUUGACGAAGCUG
Procedure, shortened: (§1)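 Mutagenized RNA pools with a 21-nt variable region (0.43 μM) reacted with each biotinyl-aminoacyl-oxazolone at 2–1250 μM. Reactions ran in 50 μL HEPES/NaCl/KCl/MgCl2/CaCl2 buffer with 5% acetonitrile, pH 6.9–7.0, for 90 minutes at room temperature. Streptavidin-captured RNA was quantified by triplicate qPCR and Illumina sequencing, and per-sequence fraction reacted was fit to a pseudo-first-order model with 1000 bootstraps. Catalytic enhancement is median kA divided by the uncatalyzed rate, the low-activity peak of a bimodal Gaussian fit.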

biotinyl-Ile-oxazolone = experiment: self-aminoacylation, catalytic enhancement (BIO) (fold over background); higher = more active; k-Seq, kA / k0A0; sequences stand for … in GGGAAUGGAUCCACAUCUACGAAUUC…UUCACUGCAGACUUGACGAAGCUG
Procedure, shortened: as §1

biotinyl-Val-oxazolone = experiment: self-aminoacylation, catalytic enhancement (BVO) (fold over background); higher = more active; k-Seq, kA / k0A0; sequences stand for … in GGGAAUGGAUCCACAUCUACGAAUUC…UUCACUGCAGACUUGACGAAGCUG
Procedure, shortened: as §1

biotinyl-Met-oxazolone = experiment: self-aminoacylation, catalytic enhancement (BMO) (fold over background); higher = more active; k-Seq, kA / k0A0; sequences stand for … in GGGAAUGGAUCCACAUCUACGAAUUC…UUCACUGCAGACUUGACGAAGCUG
Procedure, shortened: as §1

biotinyl-Trp-oxazolone = experiment: self-aminoacylation, catalytic enhancement (BWO) (fold over background); higher = more active; k-Seq, kA / k0A0; sequences stand for … in GGGAAUGGAUCCACAUCUACGAAUUC…UUCACUGCAGACUUGACGAAGCUG
Procedure, shortened: as §1

biotinyl-Leu-oxazolone = experiment: self-aminoacylation, catalytic enhancement (BLO) (fold over background); higher = more active; k-Seq, kA / k0A0; sequences stand for … in GGGAAUGGAUCCACAUCUACGAAUUC…UUCACUGCAGACUUGACGAAGCUG
Procedure, shortened: as §1

Sequence | self-aminoacylation (biotinyl-Phe-oxazolone) | self-aminoacylation (biotinyl-Ile-oxazolone) | self-aminoacylation (biotinyl-Val-oxazolone) | self-aminoacylation (biotinyl-Met-oxazolone) | self-aminoacylation (biotinyl-Trp-oxazolone) | self-aminoacylation (biotinyl-Leu-oxazolone)
CCUCACUUCAAGCAAUCGGUU [Fam1B.1 aminoacylation ribozyme variant] | 9.36 | 1.34 | 1.61 | 1.45 | 6.83 | 1.7
AUACACCUAGGUCACCGGGUG [Fam2.2 aminoacylation ribozyme variant] | 23.3 | 3.29 | 3.23 | 3.09 | 3.79 | 3.78
UAGUUUGGUAAUAGUCGCAAG [Fam3.1 aminoacylation ribozyme variant] | 2.29 | 1.73 | 1.57 | 1.74 | 1.96 | 1.81
AUUACCAUGGUCAUCGAGCGA [Fam2.1 aminoacylation ribozyme variant] | 1.04 | 1.73 | 1.79 | 2.24 | 1.64 | 1.98
UAGUUUUCUAAUAGUCGCAAG [Fam3.1 aminoacylation ribozyme variant] | 1.6 | 1.52 | 1.23 | 1.25 | 1.59 | 1.3
CUUCUGCAAACAAUCGGUCUG [Fam1A.1 aminoacylation ribozyme variant] | 1.52 | 0.957 | 0.889 | 0.85 | 0.919 | 0.795
AAGUUUGCUAAUUGUAGCAAG [Fam3.1 aminoacylation ribozyme variant] | 0.987 | 0.854 | 1.03 | 0.979 | 1.02 | 0.95
CCACCCUUCAAGGAAUCGGUC [Fam1B.1 aminoacylation ribozyme variant] | 3.31 | 1.36 | 1.32 | 1.34 | 4 | 1.27
AUUCACCUCGGUAAUCGGGUG [Fam2.2 aminoacylation ribozyme variant] | 31.8 | 4.01 | 3.32 | 4.55 | 4.41 | 6.13
AUUCACCCAGGUCAUUGGGUG [Fam2.2 aminoacylation ribozyme variant] | 23.8 | 2.31 | 2.52 | 3.36 | 3.71 | 4.11
CUACUUCAAGCAAUCGGUGUG [Fam1A.1 aminoacylation ribozyme variant] | 3.56 | 1.26 | 1.24 | 1.59 | 3.13 | 1.83
AUUCCCCUAGGUCAUCGGGAG [Fam2.2 aminoacylation ribozyme variant] | 19.4 | 6.89 | 6.76 | 8.27 | 8.9 | 9.02
UUACAUCAAACAAUCGGUCUG [Fam1A.1 aminoacylation ribozyme variant] | 3.42 | 1.12 | 1.17 | 1.19 | 2.51 | 1.17
AAGUUUGCUAAGAGUAGCAAG [Fam3.1 aminoacylation ribozyme variant] | 1.3 | 0.857 | 0.727 | 1.1 | 1.17 | 1.21
CUACAUCAAACAAUCGCUCUG [Fam1A.1 aminoacylation ribozyme variant] | 0.457 | 0.803 | 0.878 | 0.777 | 0.67 | 0.89
ACGUUUGCUAAUAGUCGCAAC [Fam3.1 aminoacylation ribozyme variant] | 1.42 | 1.36 | 1.18 | 0.972 | 0.859 | 1.43
GCACACUUCAAGCACUCGGUC [Fam1B.1 aminoacylation ribozyme variant] | 4.05 | 2.02 | 2.25 | 2.44 | 3.42 | 1.94
ACUCACCUCGGUCAUCGGGUG [Fam2.2 aminoacylation ribozyme variant] | 34.4 | 4.08 | 4.77 | 4.36 | 6.06 | 5.87
CUACUUCAAACAAUCGGCGUG [Fam1A.1 aminoacylation ribozyme variant] | 6.45 | 3.35 | 3.12 | 4.44 | 5.22 | 6.1
AUUCACCUCGGUUAUCGGGUG [Fam2.2 aminoacylation ribozyme variant] | 41.1 | 4.48 | 4.58 | 5.58 | 7.82 | 7.66
AAUCGCCUAGGUCAUCGGGUG [Fam2.2 aminoacylation ribozyme variant] | 72.9 | 6.97 | 8.02 | 10.4 | 10 | 9.78
CCACUCUUCAAGCAAGCGGUC [Fam1B.1 aminoacylation ribozyme variant] | 0.629 | 0.909 | 0.97 | 0.806 | 0.585 | 1.09
CCCCACUUCAAGCAAUCGGUC [Fam1B.1 aminoacylation ribozyme variant] | 57.5 | 1.54 | 1.83 | 1.48 | 31.5 | 1.97
CUACAUCAAACAAUCGGUCUG [Fam1A.1 aminoacylation ribozyme variant] | 2.27 | 0.799 | 0.82 | 0.759 | 1.41 | 0.736
AUUCAGCUAGGUCAUCGGGUA [Fam2.2 aminoacylation ribozyme variant] | 29.7 | 3.18 | 3.3 | 3.6 | 2.76 | 3.67
CUUACCCUGGUCUUCGAGUGA [Fam2.1 aminoacylation ribozyme variant] | 17.9 | 2.29 | 2.64 | 3.87 | 5 | 4.29

Sequence | self-aminoacylation (biotinyl-Phe-oxazolone) | self-aminoacylation (biotinyl-Ile-oxazolone) | self-aminoacylation (biotinyl-Val-oxazolone) | self-aminoacylation (biotinyl-Met-oxazolone) | self-aminoacylation (biotinyl-Trp-oxazolone) | self-aminoacylation (biotinyl-Leu-oxazolone)
AUUACCCUGGUGAUCGCGUGA [Fam2.1 aminoacylation ribozyme variant] | 44.2 | 3.45 | 4.19 | 4.66 | 6.27 | 4.38
AUUCACCCAGGCCAUCGGGUG [Fam2.2 aminoacylation ribozyme variant] | 34.1 | 3.35 | 3.7 | 3.79 | 5.24 | 6.14
CUACUUCAAACCACCGGUCUG [Fam1A.1 aminoacylation ribozyme variant] | 0.963 | 1.03 | 0.954 | 1.09 | 1.25 | 0.795
CCAAACUUCAAGCAAACGGUC [Fam1B.1 aminoacylation ribozyme variant] | 0.911 | 0.832 | 0.846 | 0.699 | 0.811 | 0.607
AAGUUUGAUAAUAGUCACAAG [Fam3.1 aminoacylation ribozyme variant] | 0.914 | 0.649 | 0.742 | 0.716 | 0.877 | 0.547
AUUACCCUGGCCAUCGAGUGG [Fam2.1 aminoacylation ribozyme variant] | 2.71 | 1.26 | 1.17 | 1.72 | 1.66 | 1.95
CCACACUUCAAGCAUUCGUUC [Fam1B.1 aminoacylation ribozyme variant] | 0.811 | 0.852 | 1.02 | 0.685 | 0.688 | 0.653
AAUCACCUAGAUCAUCGGGUG [Fam2.2 aminoacylation ribozyme variant] | 9.55 | 2.75 | 2.68 | 2.41 | 3.99 | 2.55
AUUCACCUAGGUCAUGGCGUG [Fam2.2 aminoacylation ribozyme variant] | 59.8 | 5.83 | 5.9 | 9.82 | 8.17 | 13.2
CUACUUCAAACAACGGGUCUG [Fam1A.1 aminoacylation ribozyme variant] | 0.618 | 0.937 | 0.904 | 0.716 | 0.697 | 0.627
AUUCAGCUAGGUCAUCGGGGG [Fam2.2 aminoacylation ribozyme variant] | 16.7 | 3.18 | 2.23 | 2.69 | 2.72 | 3.48
AAGUUGGCGAAUAGUCGCAAG [Fam3.1 aminoacylation ribozyme variant] | 2.86 | 1.78 | 1.78 | 1.64 | 2.72 | 1.51
GAGUUUGCUAAUAGGCGCAAG [Fam3.1 aminoacylation ribozyme variant] | 1.4 | 0.982 | 0.836 | 0.961 | 1.35 | 1.02
CUACGUCGAACAAUCGGUCUG [Fam1A.1 aminoacylation ribozyme variant] | 4.04 | 1.7 | 1.93 | 1.91 | 1.3 | 1.83
AUUCACAUAGGUCAGCGGGUG [Fam2.2 aminoacylation ribozyme variant] | 22.6 | 3.26 | 2.91 | 3.83 | 5.03 | 4.15
AUUGUCCUGGUCAUCGAGUGA [Fam2.1 aminoacylation ribozyme variant] | 10 | 4.78 | 4.76 | 9.63 | 11.3 | 8.83
AAAUUUGGUAAUAGUCGCAAG [Fam3.1 aminoacylation ribozyme variant] | 2.12 | 2.2 | 1.74 | 1.88 | 2.27 | 1.86
CUACCUCAAACACUCGGUCUG [Fam1A.1 aminoacylation ribozyme variant] | 1.74 | 1.22 | 1.6 | 1.08 | 1.93 | 1.31
CUACUUCUAACAAUCGGUCGG [Fam1A.1 aminoacylation ribozyme variant] | 0.725 | 0.843 | 0.728 | 0.626 | 0.653 | 0.978
GUUCAUCUAGGUCAUCGGGUG [Fam2.2 aminoacylation ribozyme variant] | 35.3 | 4.19 | 3.72 | 5.79 | 7.23 | 7.61
CCACCCUUCAAGCAAUAGGUC [Fam1B.1 aminoacylation ribozyme variant] | 0.807 | 0.645 | 0.711 | 0.575 | 0.452 | 0.529
CUACUUCAAAAAAUCGGUUUG [Fam1A.1 aminoacylation ribozyme variant] | 9.83 | 1.03 | 0.695 | 0.73 | 6.33 | 0.84
AACUUUGCUGAUAGUCGCAAG [Fam3.1 aminoacylation ribozyme variant] | 3.74 | 2.81 | 2.24 | 2.81 | 3.67 | 3.01
CCACACUUCCAGCAAUCGUUC [Fam1B.1 aminoacylation ribozyme variant] | 1.22 | 1.09 | 1.05 | 0.642 | 0.75 | 0.64
CCCCACUUCAAGCAAUCCGUC [Fam1B.1 aminoacylation ribozyme variant] | 3.48 | 1.62 | 1.6 | 1 | 2.64 | 1.02
